To fix the notation:
B1: ppceAB minimum 70-bp fragment (dsDNA)
DNA 1: ATTATTTTAAAATTAAAATCTATATCTTTCCTATAACAAAGCTATAACTTTTGTATATCATTCTTAAAAT
DNA 2: ATTTTAAGAATGATATACAAAAGTTATAGCTTTGTTATAGGAAAGATATAGATTTTAATTTTAAAATAAT

One series concerns the target T1, RR2 (PceP), OmpR-family response regulator of TCS2 (Sulfurospirillum halorespirans (DSM 13726?)) (UniProt A0A1D7TJV3).
T1 sequence: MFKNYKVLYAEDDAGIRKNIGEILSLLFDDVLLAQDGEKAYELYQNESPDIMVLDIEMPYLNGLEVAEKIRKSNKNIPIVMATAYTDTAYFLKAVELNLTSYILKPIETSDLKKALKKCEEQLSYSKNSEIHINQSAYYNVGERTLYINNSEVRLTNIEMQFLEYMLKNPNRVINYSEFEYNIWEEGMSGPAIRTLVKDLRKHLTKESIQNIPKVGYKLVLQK
Nature of the series: EMSA. To be noted: EMSA: 10 mM HEPES pH 7.6, 2 mM MgCl2, 200 mM KCl, 0.1 mM EDTA, 5 mM DTT, 10% glycerol, 50 ug/ul Ficoll 70, 250 ng poly(dI/dC), 2.5 pmol DNA in 15 ul, room …. In general terms: In EMSA bound probe runs differently from free probe, usually more slowly.
As for “ATTGTCTGATATATTGACAAAATCTTTATAAAATCTCCAAAAATATAAAAAAAGAAAAGTATTTACTTATTACTTCGTAAATATTATTAACTTTCATTATTTTAAAATTAAAATCTATATCTTTCCTATAACAAAGCTATAACTTTTGTATATCATTCTTAAAATGTGAAATTAATTCATAAACACATTAAAAAATAAATAACTGTACTTGGGGTTATTTATAAAAGGTTACAAGAAGGTTTGAATACCACTGTGTAAGTTGTTACTCTTGGTATTTTTTAAGGAGGAAGTATG (double strand) [ppceAB promoter]”, the binding result is “binds”.
Same read-out and setting: for “CATATTCTATCCTTATTTTTAAAATATTTAATTATTATAAATGTAAGTATAGAAAATAATTATAGGTTGTTTGTAGATAATAATAATTTTTCTACTAATTCTTTAATCATTAAATAATATTCAGTAGTATTTCTATCTATCTCGATGCTCAAAAAAACACCATCAATTCTATCAATATCTACATCTATAACTTTTTCTTAA (double strand) [p1494 (ahpD-like gene promoter)]” the value was “binds more weakly”; for “CATGTGTGAACCTATCCTATAGTTTATAACTATGATTCTATCAGATATTTTGTTAAAAATTAACTTAAAAGAGTAAAAATTATCTATTTAATAGTTACCCTATATTTCACCTATAAGTTACCTATAAATATTCATAAAATTCAAGGTTCTCTCTTTATTGCACACAAAGTTACTACAAGTTTTATGTACT (double strand) [pTCS2/SHALO_1504 intergenic region (pTCS2)]”, “binds”.
In the case of “CATTAAATTCTTAATTACATCATTATATCACAAAAAAGGCAAGGAATGATAAAAAAGTTTTATCATCTAAGTGAAGTATTAGACAATATCATATAATTAAATAGTTAAAGTAGTATAAATAAACCGTAAAATATGCAAATAACTGCATTTATAAGCTAATATTAATAAAATATACAA (double strand) [p1552 promoter (phage CI repressor superfamily gene)]”, the binding result is “no binding”.
The same measure, in the same setting: to “CTGCATAGAGTATTGTATAAGAAGCGAGCATGTTAAATCCCTGAAATTTTATGAATAATGTACGTATTATAAAAAAAGAAATATAGAACTTGTAGATAAAAAATATTTTCCTTCTATTTTAGTTATACAACGGTTGCATAAGTTTTAAATACAATTTTCATAATAAGTCAGATGTTAAATGGTTGTACTTGGGATCATTTAATTAAAGGTTACAAGAAGGTTTAAAATCATTATCATGATTGTATGGTAGATGATTTTTTAAGGAGTAAATATG (double strand) [prdhAB promoter]” belongs “binds more weakly”.
Turning to “TCTATCAGATATTTTGTTAAAAATTAACTTAAAAGAGTAAAAATTATCTATTTAATAGTTACCCTATATTTCACCTATAAGTTAC (double strand) [pTCS2/SHALO_1504 f9 (lacks repeat closest to SHALO_1504 TSS)]”, the binding entry is given as “no binding”.
Turning to “TTCACCTATAAGTTACCTATAAATATTCATAAAATTCAAGGTTCTCTCTTTATTGCACACAAAGTTACTACAAGTTTTATGTACT (double strand) [pTCS2/SHALO_1504 f2 (first CCTATA incomplete)]”, the binding entry is recorded as “binds more weakly”.

The target of a further series is T2, RR2 (PceP), OmpR-family response regulator of TCS2 (Sulfurospirillum halorespirans, UniProt A0A1D7TJV3 1-223).
T2 sequence: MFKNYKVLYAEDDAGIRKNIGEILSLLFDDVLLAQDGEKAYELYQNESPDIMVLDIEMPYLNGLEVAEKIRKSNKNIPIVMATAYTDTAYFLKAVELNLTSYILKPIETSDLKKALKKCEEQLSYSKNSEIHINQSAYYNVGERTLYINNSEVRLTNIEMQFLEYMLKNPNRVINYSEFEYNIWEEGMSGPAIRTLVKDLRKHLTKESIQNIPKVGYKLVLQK
Nature of the series: EMSA; minimum binding fragment; 30 or 60 pmol RR2; EMSA: 10 mM HEPES pH 7.6, 2 mM MgCl2, 200 mM KCl, 0.1 mM EDTA, 5 mM DTT, 10% glycerol, 50 ug/ul Ficoll 70, 250 ng poly(dI/dC), 2.5 pmol DNA in 15 ul, room temperature 20 min; gel with 30% triethylene glycol in 1x TAE. Conditions: protein: recombinant; tags: Twin-Strep; chain copies: 2; label: 6-FAM; blunt.
Turning to B1, the binding result was “binds”.

Source of the values: PMC7755780, “Tetrachloroethene respiration in Sulfurospirillum species is regulated by a two‐component system as unraveled by comparative genomics, transcriptomics, and regulator binding studies”.
